This data set deals with FEN1 (human, UniProt P39748 1-380). The data set is described as follows: fluorescence anisotropy; rotational correlation time decreases on binding; RPA reaction buffer with 50 mM KCl or FEN1 reaction buffer (full composition not in material); steady-state measurements at room temperature; proteins in excess over Kd (Kd stated only as low nM). The settings on record: protein: recombinant; tags: none left (His6-SUMO cleaved); label: 5' flap tip pCy3; nicked double flap: 3 strands, 5' flap 4 nt, 3' flap 1 nt.
Chain of FEN1 (P39748 whole entry): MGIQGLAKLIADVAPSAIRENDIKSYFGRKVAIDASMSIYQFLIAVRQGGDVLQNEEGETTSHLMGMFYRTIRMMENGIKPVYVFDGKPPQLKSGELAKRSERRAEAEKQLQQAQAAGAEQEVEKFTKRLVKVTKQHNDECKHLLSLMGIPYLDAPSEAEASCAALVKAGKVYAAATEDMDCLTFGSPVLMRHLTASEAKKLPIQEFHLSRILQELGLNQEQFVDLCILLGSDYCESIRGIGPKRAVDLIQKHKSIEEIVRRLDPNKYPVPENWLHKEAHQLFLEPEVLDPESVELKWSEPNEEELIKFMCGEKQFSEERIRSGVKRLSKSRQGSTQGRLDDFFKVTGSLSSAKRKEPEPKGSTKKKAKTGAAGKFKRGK

B1: DF-4,1 pCy3 (structured_DNA)
DNA 1: GATGACGAGCAGTCCTAACTGGAAATCTAGCTCTGTGGAG
DNA 2: CTCCACAGAGCTAGATTTCCC
DNA 3: TTTAAGTTAGGACTGCTCGTCATC
Take B1: the binding result was “binds”.
